*1 amine or outer side, *2 acyl side, *3 side chain or, on linkers, in order; H or OH if unused. Bridges are numbered along the chain shown (N, C = ends). Where no end group is shown, it is not given here. [ ]: non-standard residue; d: D form. The star is where a group is joined. Phe(4-OMe) = COc1ccc(C[C@H](N[*:1])C(=O)[*:2])cc1; Trp(7-Me) = Cc1cccc2c(C[C@H](N)C(=O)O)c[nH]c12; 2Nal = N[C@@H](Cc1ccc2ccccc2c1)C(=O)O; Propanoyl(3,3,3-F3) = O=C(CC(F)(F)F)*; AEF = NCCOc1ccc(C[C@H](N)C(=O)O)cc1; αMeF = C[C@](N)(Cc1ccccc1)C(=O)O; NMeβAla = CN(CCC(=O)[*:2])[*:1]; Pen = CC(C)(S)[C@H](N)C(=O)O; αMeK = C[C@](N)(CCCCN)C(=O)O; Thp = NC1(C(=O)O)CCOCC1; Abu = CC[C@H](N)C(=O)O; Propionyl = CCC(=O)*
T1: human IL-23R (interleukin-23 receptor) (human, UniProt Q5VWK5 24-629)
T1 sequence (looked up): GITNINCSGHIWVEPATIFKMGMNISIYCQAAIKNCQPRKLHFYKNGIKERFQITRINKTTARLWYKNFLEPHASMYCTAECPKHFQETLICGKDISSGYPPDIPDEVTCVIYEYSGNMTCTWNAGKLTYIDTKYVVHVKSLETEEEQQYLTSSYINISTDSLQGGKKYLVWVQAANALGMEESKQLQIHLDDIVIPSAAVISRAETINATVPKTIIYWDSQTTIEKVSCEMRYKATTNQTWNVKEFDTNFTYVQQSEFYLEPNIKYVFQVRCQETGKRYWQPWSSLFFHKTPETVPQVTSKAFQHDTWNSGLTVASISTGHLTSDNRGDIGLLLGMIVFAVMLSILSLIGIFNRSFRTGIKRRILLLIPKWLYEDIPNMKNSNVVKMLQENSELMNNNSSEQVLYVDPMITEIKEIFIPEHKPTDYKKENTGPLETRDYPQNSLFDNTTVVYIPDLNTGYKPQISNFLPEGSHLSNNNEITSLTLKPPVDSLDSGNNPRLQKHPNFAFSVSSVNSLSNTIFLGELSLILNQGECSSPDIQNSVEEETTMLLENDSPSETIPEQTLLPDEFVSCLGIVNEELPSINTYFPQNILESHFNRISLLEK

B1: Compound No. 3 (peptide)
peptide: Propionyl-[dR][Pen]QTWQ[Pen][AEF][2Nal][Thp]EN[αMeF]-NH2
modifications: disulfide 2-7
SMILES: CCC(=O)N[C@H](CCCNC(=N)N)C(=O)N[C@@H]1C(=O)N[C@@H](CCC(N)=O)C(=O)N[C@@H]([C@@H](C)O)C(=O)N[C@@H](Cc2c[nH]c3ccccc23)C(=O)N[C@@H](CCC(N)=O)C(=O)N[C@H](C(=O)N[C@@H](Cc2ccc(OCCN)cc2)C(=O)N[C@@H](Cc2ccc3ccccc3c2)C(=O)NC2(C(=O)N[C@@H](CCC(=O)O)C(=O)N[C@@H](CC(N)=O)C(=O)N[C@@](C)(Cc3ccccc3)C(N)=O)CCOCC2)C(C)(C)SSC1(C)C
B2: Compound No. 4 (peptide)
peptide: Propionyl-[dR][Pen]QTWQ[Pen][Phe(4-OMe)][2Nal][Thp]EN[Thp]-NH2
modifications: disulfide 2-7
SMILES: CCC(=O)N[C@H](CCCNC(=N)N)C(=O)N[C@@H]1C(=O)N[C@@H](CCC(N)=O)C(=O)N[C@@H]([C@@H](C)O)C(=O)N[C@@H](Cc2c[nH]c3ccccc23)C(=O)N[C@@H](CCC(N)=O)C(=O)N[C@H](C(=O)N[C@@H](Cc2ccc(OC)cc2)C(=O)N[C@@H](Cc2ccc3ccccc3c2)C(=O)NC2(C(=O)N[C@@H](CCC(=O)O)C(=O)N[C@@H](CC(N)=O)C(=O)NC3(C(N)=O)CCOCC3)CCOCC2)C(C)(C)SSC1(C)C
B3: Compound No. 111 (peptide)
peptide: Ac-[dR][Pen]NT[Trp(7-Me)]K(Ac)[Pen][AEF][2Nal][Thp]K(Ac)N[αMeF]-NH2
modifications: disulfide 2-7
SMILES: CC(=O)NCCCC[C@@H]1NC(=O)[C@H](Cc2c[nH]c3c(C)cccc23)NC(=O)[C@H]([C@@H](C)O)NC(=O)[C@H](CC(N)=O)NC(=O)[C@@H](NC(=O)[C@@H](CCCNC(=N)N)NC(C)=O)C(C)(C)SSC(C)(C)[C@@H](C(=O)N[C@@H](Cc2ccc(OCCN)cc2)C(=O)N[C@@H](Cc2ccc3ccccc3c2)C(=O)NC2(C(=O)N[C@@H](CCCCNC(C)=O)C(=O)N[C@@H](CC(N)=O)C(=O)N[C@@](C)(Cc3ccccc3)C(N)=O)CCOCC2)NC1=O
B4: Compound No. 92 (peptide)
peptide: Ac-[dR][Pen]NT[Trp(7-Me)]K(Ac)[Pen][AEF][2Nal][Thp]EN[Thp]-NH2
modifications: disulfide 2-7
SMILES: CC(=O)NCCCC[C@@H]1NC(=O)[C@H](Cc2c[nH]c3c(C)cccc23)NC(=O)[C@H]([C@@H](C)O)NC(=O)[C@H](CC(N)=O)NC(=O)[C@@H](NC(=O)[C@@H](CCCNC(=N)N)NC(C)=O)C(C)(C)SSC(C)(C)[C@@H](C(=O)N[C@@H](Cc2ccc(OCCN)cc2)C(=O)N[C@@H](Cc2ccc3ccccc3c2)C(=O)NC2(C(=O)N[C@@H](CCC(=O)O)C(=O)N[C@@H](CC(N)=O)C(=O)NC3(C(N)=O)CCOCC3)CCOCC2)NC1=O
B5: Compound No. 77 (peptide)
peptide: Ac-[dR][Pen]NT[Trp(7-Me)]K(Ac)[Pen][AEF][2Nal][Thp]EN[αMeF]-NH2
modifications: disulfide 2-7
SMILES: CC(=O)NCCCC[C@@H]1NC(=O)[C@H](Cc2c[nH]c3c(C)cccc23)NC(=O)[C@H]([C@@H](C)O)NC(=O)[C@H](CC(N)=O)NC(=O)[C@@H](NC(=O)[C@@H](CCCNC(=N)N)NC(C)=O)C(C)(C)SSC(C)(C)[C@@H](C(=O)N[C@@H](Cc2ccc(OCCN)cc2)C(=O)N[C@@H](Cc2ccc3ccccc3c2)C(=O)NC2(C(=O)N[C@@H](CCC(=O)O)C(=O)N[C@@H](CC(N)=O)C(=O)N[C@@](C)(Cc3ccccc3)C(N)=O)CCOCC2)NC1=O
B6: Compound No. 75 (peptide)
peptide: Ac-[Pen]NT[Trp(7-Me)]K(Ac)[Pen][AEF][2Nal][αMeK]K(Ac)N[Thp]-NH2
modifications: disulfide 1-6
SMILES: CC(=O)NCCCC[C@@H]1NC(=O)[C@H](Cc2c[nH]c3c(C)cccc23)NC(=O)[C@H]([C@@H](C)O)NC(=O)[C@H](CC(N)=O)NC(=O)[C@@H](NC(C)=O)C(C)(C)SSC(C)(C)[C@@H](C(=O)N[C@@H](Cc2ccc(OCCN)cc2)C(=O)N[C@@H](Cc2ccc3ccccc3c2)C(=O)N[C@@](C)(CCCCN)C(=O)N[C@@H](CCCCNC(C)=O)C(=O)N[C@@H](CC(N)=O)C(=O)NC2(C(N)=O)CCOCC2)NC1=O
B7: Compound No. 5 (peptide)
peptide: {Propanoyl(3,3,3-F3)}-[dR][Pen]QTWQ[Pen][AEF][2Nal][Thp]EN[Thp]-NH2
modifications: disulfide 2-7
SMILES: C[C@@H](O)[C@@H]1NC(=O)[C@H](CCC(N)=O)NC(=O)[C@@H](NC(=O)[C@@H](CCCNC(=N)N)NC(=O)CC(F)(F)F)C(C)(C)SSC(C)(C)[C@@H](C(=O)N[C@@H](Cc2ccc(OCCN)cc2)C(=O)N[C@@H](Cc2ccc3ccccc3c2)C(=O)NC2(C(=O)N[C@@H](CCC(=O)O)C(=O)N[C@@H](CC(N)=O)C(=O)NC3(C(N)=O)CCOCC3)CCOCC2)NC(=O)[C@H](CCC(N)=O)NC(=O)[C@H](Cc2c[nH]c3ccccc23)NC1=O
B8: Compound No. 10 (peptide)
peptide: Propionyl-[dR][Pen]QTWQ[Pen][AEF][2Nal][Thp]EN[Thp]-NH2
modifications: disulfide 2-7
SMILES: CCC(=O)N[C@H](CCCNC(=N)N)C(=O)N[C@@H]1C(=O)N[C@@H](CCC(N)=O)C(=O)N[C@@H]([C@@H](C)O)C(=O)N[C@@H](Cc2c[nH]c3ccccc23)C(=O)N[C@@H](CCC(N)=O)C(=O)N[C@H](C(=O)N[C@@H](Cc2ccc(OCCN)cc2)C(=O)N[C@@H](Cc2ccc3ccccc3c2)C(=O)NC2(C(=O)N[C@@H](CCC(=O)O)C(=O)N[C@@H](CC(N)=O)C(=O)NC3(C(N)=O)CCOCC3)CCOCC2)C(C)(C)SSC1(C)C
B9: Compound No. 8 (peptide)
peptide: Propionyl-[dR][Pen]QTWQ[Pen][AEF][2Nal][Thp]EN[NMeβAla]-NH2
modifications: disulfide 2-7
SMILES: CCC(=O)N[C@H](CCCNC(=N)N)C(=O)N[C@@H]1C(=O)N[C@@H](CCC(N)=O)C(=O)N[C@@H]([C@@H](C)O)C(=O)N[C@@H](Cc2c[nH]c3ccccc23)C(=O)N[C@@H](CCC(N)=O)C(=O)N[C@H](C(=O)N[C@@H](Cc2ccc(OCCN)cc2)C(=O)N[C@@H](Cc2ccc3ccccc3c2)C(=O)NC2(C(=O)N[C@@H](CCC(=O)O)C(=O)N[C@@H](CC(N)=O)C(=O)N(C)CCC(N)=O)CCOCC2)C(C)(C)SSC1(C)C
B10: Compound No. 76 (peptide)
peptide: Ac-[Pen]NT[Trp(7-Me)]K(Ac)[Pen][AEF][2Nal][αMeK]K(Ac)N[αMeF]-NH2
modifications: disulfide 1-6
SMILES: CC(=O)NCCCC[C@@H]1NC(=O)[C@H](Cc2c[nH]c3c(C)cccc23)NC(=O)[C@H]([C@@H](C)O)NC(=O)[C@H](CC(N)=O)NC(=O)[C@@H](NC(C)=O)C(C)(C)SSC(C)(C)[C@@H](C(=O)N[C@@H](Cc2ccc(OCCN)cc2)C(=O)N[C@@H](Cc2ccc3ccccc3c2)C(=O)N[C@@](C)(CCCCN)C(=O)N[C@@H](CCCCNC(C)=O)C(=O)N[C@@H](CC(N)=O)C(=O)N[C@@](C)(Cc2ccccc2)C(N)=O)NC1=O

target: T1, human IL-23R (interleukin-23 receptor); experiment: cell-based or functional assay

Row | Binder | NK Cell Assay (nM), IC50, IFN-gamma after IL-23 and IL-18 [nM]
1 | B1 | 20.1
2 | B2 | 32.1
3 | B3 | 6.51
4 | Ac-[Abu]QT[Trp(7-Me)]K(Ac)C[AEF][2Nal][αMeK]K(Ac)N[αMeF]-NH2 (thioether 1-6) [Compound No. 66] | 13.1
5 | B4 | 1.46
6 | B5 | 2.33
7 | Ac-[Abu]QT[Trp(7-Me)]K(Ac)C[AEF][2Nal][αMeK]K(Ac)N[dL]-NH2 (thioether 1-6) [Compound No. 65] | 6.03
8 | B6 | 2.69
9 | B7 | 10.3
10 | B8 | 8.29
11 | B9 | 72.3
12 | B10 | 4.01
13 | Ac-[Abu]QT[Trp(7-Me)]K(Ac)C[AEF][2Nal][αMeK]K(Ac)N[dK]-NH2 (thioether 1-6) [Compound No. 64] | 5.44
14 | [dR][Pen]QTWQ[Pen][AEF][2Nal][Thp]EN[Thp]-NH2 (disulfide 2-7; not fully specified (N-terminus)) [Compound No. 9] | 11.6

target: T1, human IL-23R (interleukin-23 receptor); experiment: cell-based or functional assay; remark: another data set of the same source

Row | Binder | PBMC pSTAT3 IC50 (nM) | pStat3 HTRF (nM), IC50, DB cells IL23R pSTAT3 cell assay [nM]
15 | B1 | 40 | 2.31
16 | B2 | – | 4.17
17 | B3 | – | 1.29
18 | Ac-[Abu]QT[Trp(7-Me)]K(Ac)C[AEF][2Nal][αMeK]K(Ac)N[αMeF]-NH2 (thioether 1-6) [Compound No. 66] | – | 2.27
19 | B4 | 3.3 | 0.206
20 | B5 | 6.4 | 0.353
21 | Ac-[Abu]QT[Trp(7-Me)]K(Ac)C[AEF][2Nal][αMeK]K(Ac)N[dL]-NH2 (thioether 1-6) [Compound No. 65] | – | 0.966
22 | B6 | 8.9 | 0.787
23 | B7 | 4.7 | 2.94
24 | B8 | 4.6 | 4.16
25 | B9 | – | 24.6
26 | B10 | 11 | 1.5
27 | Ac-[Abu]QT[Trp(7-Me)]K(Ac)C[AEF][2Nal][αMeK]K(Ac)N[dK]-NH2 (thioether 1-6) [Compound No. 64] | – | 0.889
28 | [dR][Pen]QTWQ[Pen][AEF][2Nal][Thp]EN[Thp]-NH2 (disulfide 2-7; not fully specified (N-terminus)) [Compound No. 9] | 29 | 3.12
